T1: Bd0055 (Bdellovibrio bacteriovorus HD100, UniProt Q6MRM1 1-64)
T1 sequence: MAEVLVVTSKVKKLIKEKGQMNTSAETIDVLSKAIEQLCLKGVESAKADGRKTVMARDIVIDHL


Columns and labels:
Bd0055 = biological target: T1, Bd0055; test: X-ray crystallography; 10 mM NaCl, 0.1 mM EDTA, 50 mM HEPES pH 7.5; 16:1 protein to DNA; 1 dimer per 2.5 bp; FP/FRET: 10 nM DNA, 10 mM NaCl, 1 mM EDTA, 50 mM HEPES pH 6, RT; EMSA: 1 uM DNA, 10 mM NaCl, 1 mM EDTA, 50 mM HEPES pH 7.5, RT; conditions: protein: recombinant; chain copies: 2; blunt
[1] = biological target: the molecule itself; test: crystal structure; apo Bd0055; hanging drop, 3.2 M (NH4)2SO4, 100 mM BICINE pH 9; 1.8 Å

| Binder | binding result (Bd0055) | stoichiometry N [1] |
| --- | --- | --- |
| 35 bp DNA (dsDNA) DNA 1: TCTTGCACTAAGAGCTACTGGAGTGCGTCAGATGT DNA 2: ACATCTGACGCACTCCAGTAGCTCTTAGTGCAAGA | binds |  |
| Bd0055, Bdellovibrio bacteriovorus histone (natural protein, Bdellovibrio bacteriovorus HD100, UniProt Q6MRM1 1-64, looked up, Bd0055, singlet histone fold protein of Bdellovibrio bacteriovorus HD100; the ORF was expressed; No tag is mentioned; purified by ion exchange, heparin and size exclusion; also called wildtype Bd0055; B. bacteriovorus histone; source: E. coli, codon-optimized ORF in a pET vector, purified (SP HP, Heparin HP, S75)) MAEVLVVTSKVKKLIKEKGQMNTSAETIDVLSKAIEQLCLKGVESAKADGRKTVMARDIVIDHL |  | 2 |
